In publication PMC2172055:

Experiments:
[1] = target: Sec61β (canine (endogenous in MDCK)) (UniProt P60467); assay: FRET or BRET
[2] = target: Sec61α (canine (endogenous in MDCK)) (UniProt P38377); assay: FRET or BRET
Chain of Sec61α (canine (endogenous in MDCK)) (P38377 whole entry): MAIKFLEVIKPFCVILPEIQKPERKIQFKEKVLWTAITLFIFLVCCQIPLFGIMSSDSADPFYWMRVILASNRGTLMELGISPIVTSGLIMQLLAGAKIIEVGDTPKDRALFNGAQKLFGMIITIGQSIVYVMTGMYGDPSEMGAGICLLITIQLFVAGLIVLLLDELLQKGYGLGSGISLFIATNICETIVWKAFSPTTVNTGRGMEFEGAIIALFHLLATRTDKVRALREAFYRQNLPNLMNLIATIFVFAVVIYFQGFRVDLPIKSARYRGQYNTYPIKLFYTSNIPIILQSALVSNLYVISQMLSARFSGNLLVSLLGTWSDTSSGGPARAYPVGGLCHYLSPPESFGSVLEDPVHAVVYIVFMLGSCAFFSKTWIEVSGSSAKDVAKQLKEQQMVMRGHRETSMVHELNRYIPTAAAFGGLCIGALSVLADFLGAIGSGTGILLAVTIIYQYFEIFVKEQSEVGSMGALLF

Chain of Sec61β (P60467 whole entry): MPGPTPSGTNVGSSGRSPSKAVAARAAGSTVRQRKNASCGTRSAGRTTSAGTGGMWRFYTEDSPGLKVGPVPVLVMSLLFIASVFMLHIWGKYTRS
Chain of Sec61β (canine (endogenous in MDCK)) (P60467 whole entry): as above
Chain of Sec61α (P38377 whole entry): as the sequence (P38377 whole entry) above

Substance	FRET efficiency (pactamycin-treated cells) [1] [%]	FRET efficiency (puromycin-treated cells) [1] [%]	FRET efficiency (untreated cells) [1] [%]	FRET efficiency (untreated cells, Fig. 3 B) [1] [%]	FRET efficiency (pactamycin-treated cells) [2] [%]	FRET efficiency (puromycin-treated cells) [2] [%]	FRET efficiency (untreated cells) [2] [%]	FRET efficiency (untreated cells, Fig. 3 A, donor to acceptor antibody 1:8) [1] [%]	stoichiometry N [1]
Sec61α (from UniProt P38377 1-476) (natural protein)	28	27.9	26.4	30	35.5	33.6	38.3		
Sec61β (from UniProt P60467 1-96) (natural protein)	23.9	24.8	21.4		46.8	46.1	41.8	17	> 2
